Assay results from PMC2211892.

Target: StcE′ E435D-His (Escherichia coli O157:H7) (UniProt O82882)
Experiment: flow cytometry on cells

B1: C1 esterase inhibitor (C1-INH), purified (natural protein)
chain: NPNATSSSSQDPESLQDRGEGKVATTVISKMLFVEPILEVSSLPTTNSTTNSATKITANTTDEPTTQPTTEPTTQPTIQPTQPTTQLPTDSPTQPTTGSFCPGPVTLCSDLESHSTEAVLGDALVDFSLKLYHAFSAMKKVETNMAFSPFSIASLLTQVLLGAGENTKTNLESILSYPKDFTCVHQALKGFTTKGVTSVSQIFHSPDLAIRDTFVNASRTLYSSSPRVLSNNSDANLELINTWVAKNTNNKISRLLDSLPSDTRLVLLNAIYLSAKWKTTFDPKKTRMEPFHFKNSVIKVPMMNSKKYPVAHFIDQTLKAKVGQLQLSHNLSLVILVPQNLKHRLEDMEQALSPSVFKAIMEKLEMSKFQPTLLTLPRIKVTTSQDMLSIMEKLEFFDFSYDLNLCGLTEDPDLQVSAMQHQTVLELTETGVEAAAASAISVARTLLVFEVQQPFLFVLWDQQHKFPVFMGRVYDPRA
  fold level of C1-INH on erythrocyte surfaces against StcE′-His: 22 fold
